For assay [1], the target named is T1, human glucagon receptor (hGR) (human, UniProt P47871 26-477). In words: cell-based or functional assay.
Assay [2] concerns the target T1, human glucagon receptor (hGR). In words: SPA competition against 125I-labelled glucagon on 293HEK hGR membranes, Cheng-Prusoff. On the procedure:
Plates are sealed, mixed end over end, and read with a MicroBeta® scintillation counter after 12 hours of settling time at room temperature.

In assay [3] the target is T2, mouse glucagon receptor (mGR) (mouse, UniProt Q61606 27-485).
T2 construct: whole, on cells; Assay used crude plasma membranes of the expressing 293HEK cells
In words: SPA competition against 125I-labelled glucagon on 293HEK mGR membranes, Cheng-Prusoff.

For assay [4], the target named is T3, human glucose-dependent insulinotropic peptide receptor (GIP-R) (human, UniProt P48546 22-466).
T3 construct: whole, on cells; Assay used crude plasma membranes of the expressing CHO-S cells; also called human GIP-R; hGIP-R
T3 sequence (looked up): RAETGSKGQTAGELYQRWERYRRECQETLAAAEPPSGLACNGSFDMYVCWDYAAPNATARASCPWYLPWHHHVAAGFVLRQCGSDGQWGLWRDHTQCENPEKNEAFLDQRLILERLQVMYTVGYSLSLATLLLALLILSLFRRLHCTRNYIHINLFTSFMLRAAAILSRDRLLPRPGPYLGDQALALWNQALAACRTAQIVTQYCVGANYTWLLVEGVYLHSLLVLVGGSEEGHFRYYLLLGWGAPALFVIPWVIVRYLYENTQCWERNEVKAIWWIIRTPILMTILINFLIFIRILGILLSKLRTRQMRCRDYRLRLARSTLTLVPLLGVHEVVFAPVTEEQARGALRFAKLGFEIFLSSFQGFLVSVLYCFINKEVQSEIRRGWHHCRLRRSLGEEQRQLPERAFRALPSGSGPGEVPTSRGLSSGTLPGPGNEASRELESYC
In words: SPA competition against radioiodinated GIP on CHO-S human GIP-R membranes, Cheng-Prusoff.

Assay [5] has as its target T4, human glucagon-like peptide 1 receptor (hGLP-1R) (human, UniProt P43220 24-463).
T4 construct: whole, on cells; Assay used crude plasma membranes of the expressing 293HEK cells
In words: SPA competition against 125I-labelled GLP-1 amide on 293HEK hGLP-1R membranes, Cheng-Prusoff.

Non-standard residues stand in square brackets, D forms with d. No end group written: not given here. Aib = CC(C)(N)C(=O)O

The term Ki denotes the equilibrium dissociation constant of an inhibitor or competing ligand from its target. A higher Ki goes with weaker binding.

T1 sequence (P47871 26-477): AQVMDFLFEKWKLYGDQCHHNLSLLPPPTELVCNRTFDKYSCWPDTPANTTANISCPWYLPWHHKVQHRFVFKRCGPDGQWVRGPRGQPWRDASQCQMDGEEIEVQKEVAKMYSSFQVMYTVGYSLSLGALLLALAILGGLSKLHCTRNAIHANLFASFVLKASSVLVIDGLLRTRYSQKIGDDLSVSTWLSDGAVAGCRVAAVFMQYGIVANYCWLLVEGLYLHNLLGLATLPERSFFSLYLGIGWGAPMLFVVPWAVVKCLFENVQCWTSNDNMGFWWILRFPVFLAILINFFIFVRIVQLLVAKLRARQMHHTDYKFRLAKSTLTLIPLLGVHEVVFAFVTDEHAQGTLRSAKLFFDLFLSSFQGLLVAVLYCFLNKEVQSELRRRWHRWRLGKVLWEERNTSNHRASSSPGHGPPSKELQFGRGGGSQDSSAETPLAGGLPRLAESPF
T2 sequence (Q61606 27-485): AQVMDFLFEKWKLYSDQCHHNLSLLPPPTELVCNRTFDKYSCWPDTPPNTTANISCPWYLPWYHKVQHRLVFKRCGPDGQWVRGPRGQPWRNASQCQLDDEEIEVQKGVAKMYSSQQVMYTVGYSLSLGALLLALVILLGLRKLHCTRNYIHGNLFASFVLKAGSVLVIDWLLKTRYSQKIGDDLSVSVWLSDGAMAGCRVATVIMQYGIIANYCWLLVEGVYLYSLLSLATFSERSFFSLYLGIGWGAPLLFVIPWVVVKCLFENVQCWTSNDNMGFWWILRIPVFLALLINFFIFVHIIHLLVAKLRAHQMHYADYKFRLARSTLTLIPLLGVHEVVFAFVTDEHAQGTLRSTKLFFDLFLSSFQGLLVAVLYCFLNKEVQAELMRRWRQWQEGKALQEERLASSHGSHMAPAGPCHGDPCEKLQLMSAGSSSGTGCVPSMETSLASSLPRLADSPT

B1: compound of SEQ ID NO: 2 (peptide)
peptide: YSQGTFTSDYSKYLD[Aib]KKAQEFVEWLLKTGPSSGAPPKSK-NH2
modifications: also: acetate salt
notes: Synthetic peptide made on Rink amide resin; acetate salt
As for B1, the “EC50, hGR stimulated cAMP functional assay (HTRF, hGR-HEK293 cells)” value in assay [1] was determined as 0.0203 nM. For the same molecule, the Ki in assay [2] stood at 0.286 nM; in assay [3], 1.82 nM; in assay [4], 532 nM; in assay [5], 2540 nM.
